Data on 11 molecules can be found in paper PMC3814363, “Tracking in atomic detail the functional specializations in viral RecA helicases that occur during evolution” (Nucleic Acids Research, 2013).

Data set [1] concerns the target ɸ13 P4 (full-length packaging NTPase P4 of bacteriophage ɸ13) (bacteriophage ɸ13). Put plainly: crystal structure; ɸ13 P4 crystals grown at 20°C from 12 mg/ml protein; 100 mM Tris–HCl pH 7.0, 900 mM trisodium citrate, 200 mM NaCl; apo form; hexamer.
Data set [2] addresses T1, ɸ12 P4 (Pseudomonas phage phi12, UniProt Q94M05).
T1 construct: gene 4; plasmid pPG27 (template for mutants), E. coli BL21(DE3) or B834(DE3); hexamer
Put plainly: X-ray crystal structure, […] Å. Particulars: 5 mM UTP, pH 4.8; nucleotide site; competitive with ATP, not hydrolysed. It counts as binding.

In data set [3] the target is ɸ8 P4 (full-length packaging NTPase P4 of bacteriophage ɸ8) (bacteriophage ɸ8). Put plainly: crystal structure; ɸ8 P4 crystals grown at 24°C; 100 mM sodium acetate pH 4.6, […] ammonium sulphate, DTT; protein 3 mg/ml; apo form; hexamer.
The target of data set [4] is ɸ8 P4Δ281 (C-terminally truncated ɸ8 P4, missing residues 281–321) (bacteriophage ɸ8). As to the kind of experiment: crystal structure; ɸ8 P4Δ281 crystals from 5 mg/ml protein; 100 mM Tris pH 8.0, 18% PEG 1000; hexamer.
Data set [5] concerns the molecule itself. As to the kind of experiment: crystal structure; ɸ6 P4Δ310 crystals grown at 24°C from 3.5 mg/ml protein in 20 mM HEPES pH 8.0, 5 mM MgCl2, 2 mM CaCl2, 5 mM ADP, 100 mM NaCl; reservoir 6% PEG 4000, 90 mM sodium acetate pH 4.5; ADP bound; hexamer.
Data set [6] deals with the molecule itself. Put plainly: not stated; quaternary structure of purified ɸ12 P4 mutants as listed in Table 1; method not given.
Data set [7] concerns the molecule itself. As to the kind of experiment: crystal structure; wild-type ɸ12 P4 crystals; 10% PEG 1500, 100 mM sodium acetate pH 4.8, 5 mM UTP; hexamer.

Residue numbers refer to the chain shown, from its start. Names and notes keep the numbering of the source.

T1 sequence (Q94M05 entry or part of it): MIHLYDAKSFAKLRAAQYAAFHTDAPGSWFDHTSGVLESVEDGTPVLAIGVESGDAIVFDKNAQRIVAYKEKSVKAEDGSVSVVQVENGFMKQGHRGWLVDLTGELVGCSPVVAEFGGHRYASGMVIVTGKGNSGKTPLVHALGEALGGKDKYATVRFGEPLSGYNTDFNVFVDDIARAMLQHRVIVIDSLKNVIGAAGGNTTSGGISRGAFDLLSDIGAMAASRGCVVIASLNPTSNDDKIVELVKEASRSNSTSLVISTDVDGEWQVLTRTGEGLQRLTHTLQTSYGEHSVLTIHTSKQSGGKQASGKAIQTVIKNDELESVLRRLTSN

On to “ɸ13 P4 (full-length packaging NTPase P4 of bacteriophage ɸ13) (enzyme)”, for which, in data set [1], the stoichiometry N is 6.
Regarding `O=c1ccn([C@@H]2O[C@H](COP(=O)(O)OP(=O)(O)OP(=O)(O)O)[C@@H](O)[C@H]2O)c(=O)[nH]1` [UTP], the “X-ray crystal structure, 1.9 Å” value in data set [2] is given as “pyrimidine triphosphates can bind the hexamer without being hydrolysed”.
Molecule “ɸ8 P4 (full-length packaging NTPase P4 of bacteriophage ɸ8) (enzyme)” displayed a stoichiometry N in data set [3] of 6.
Regarding “ɸ8 P4Δ281 (C-terminally truncated ɸ8 P4, missing residues 281–321) (domain or fragment)”, the stoichiometry N in data set [4] came to 6.

B1: ɸ6 P4Δ310 (C-terminally truncated packaging NTPase P4 of bacteriophage ɸ6, missing residues 310–331) (domain or fragment, UniProt P11125 1-309, looked up)
chain: MPIVVTQAHIDRVGIAADLLDASPVSLQVLGRPTAINTVVIKTYIAAVMELASKQGGSLAGVDIRPSVLLKDTAIFTKPKAKSADVESDVDVLDTGIYSVPGLARKPVTHRWPSEGIYSGVTALMGATGSGKSITLNEKLRPDVLIRWGEVAEAYDELDTAVHISTLDEMLIVCIGLGALGFNVAVDSVRPLLFRLKGAASAGGIVAVFYSLLTDISNLFTQYDCSVVMVVNPMVDAEKIEYVFGQVMASTVGAILCADGNVSRTMFRTNKGRIFNGAAPLAADTHMPSMDRPTSMKALDHTSIASVAP
notes: packaging NTPase P4 of bacteriophage ɸ6, C-terminally truncated, missing residues 310–331; expressed from plasmid pJTJ7.3/7; Crystallised with ADP, Mg2+ and Ca2+; source: E. coli BL21(DE3) or B834(DE3), purified (Heparin, Q-sepharose, Superdex 200)
Regarding B1, the “stoichiometry N” value in data set [5] is 6.

B2: ɸ12 P4 ΔTTS202-204 (enzyme, bacteriophage ɸ12)
chain: MIHLYDAKSFAKLRAAQYAAFHTDAPGSWFDHTSGVLESVEDGTPVLAIGVESGDAIVFDKNAQRIVAYKEKSVKAEDGSVSVVQVENGFMKQGHRGWLVDLTGELVGCSPVVAEFGGHRYASGMVIVTGKGNSGKTPLVHALGEALGGKDKYATVRFGEPLSGYNTDFNVFVDDIARAMLQHRVIVIDSLKNVIGAAGGNGGISRGAFDLLSDIGAMAASRGCVVIASLNPTSNDDKIVELVKEASRSNSTSLVISTDVDGEWQVLTRTGEGLQRLTHTLQTSYGEHSVLTIHTSKQSGGKQASGKAIQTVIKNDELESVLRRLTSN
notes: packaging NTPase P4 of bacteriophage ɸ12 (gene 4) with the L1 loop central residues T202-T203-S204 deleted; made from plasmid pPG27, plasmid pDK249; also called ɸ12 ΔTTS202-204; source: E. coli BL21(DE3) or B834(DE3), purified (Heparin, Q-sepharose, Superdex 200)
On to B2, for which the “stoichiometry N” value in data set [6] was found to be 6.

B3: ɸ12 P4 Y288A (enzyme, bacteriophage ɸ12)
chain: MIHLYDAKSFAKLRAAQYAAFHTDAPGSWFDHTSGVLESVEDGTPVLAIGVESGDAIVFDKNAQRIVAYKEKSVKAEDGSVSVVQVENGFMKQGHRGWLVDLTGELVGCSPVVAEFGGHRYASGMVIVTGKGNSGKTPLVHALGEALGGKDKYATVRFGEPLSGYNTDFNVFVDDIARAMLQHRVIVIDSLKNVIGAAGGNTTSGGISRGAFDLLSDIGAMAASRGCVVIASLNPTSNDDKIVELVKEASRSNSTSLVISTDVDGEWQVLTRTGEGLQRLTHTLQTSAGEHSVLTIHTSKQSGGKQASGKAIQTVIKNDELESVLRRLTSN
notes: packaging NTPase P4 of bacteriophage ɸ12 (gene 4) with Y288A; made from plasmid pPG27, plasmid pDK29; also called ɸ12 Y288A; source: E. coli BL21(DE3) or B834(DE3), purified (Heparin, Q-sepharose, Superdex 200)
B3: the “stoichiometry N” value in data set [6] turned out to be 6.

B4: wild-type ɸ12 P4 (packaging NTPase P4 of bacteriophage ɸ12) (enzyme)
chain: B3 chain with A288Y
notes: packaging NTPase P4 of bacteriophage ɸ12 (gene 4), wild type; plasmid pPG27; Crystallised here with 5 mM UTP; also called P4 ɸ12; source: E. coli BL21(DE3) or B834(DE3), purified (Heparin, Q-sepharose, Superdex 200)
B4: the “stoichiometry N” value in data set [7] is 6.

B5: ɸ12 P4 TTS202-204LKK (enzyme, bacteriophage ɸ12)
chain: B3 chain with T202L, T203K, S204K, A288Y
notes: packaging NTPase P4 of bacteriophage ɸ12 (gene 4) with LKK instead of TTS (residues 202–204); cloned in the pT7-7 vector at NdeI-EcoRI sites; also called ɸ12 TTS202-204LKK; source: E. coli BL21(DE3) or B834(DE3), purified (Heparin, Q-sepharose, Superdex 200)
Turning to B5, the “stoichiometry N” value in data set [6] worked out at 6.

B6: ɸ12 P4-Q278A (enzyme)
chain: B3 chain with Q278A, A288Y
notes: packaging NTPase P4 of bacteriophage ɸ12 (gene 4) with Q278A; made from plasmid pPG27, plasmid pDK30; Crystallised with 5 mM AMPcPP; also called ɸ12 Q278A; Q278A mutant; source: E. coli BL21(DE3) or B834(DE3), purified (Heparin, Q-sepharose, Superdex 200)
As to B6, the “stoichiometry N” value in data set [6] amounted to 6.

B7: ɸ12 P4-S292A (enzyme)
chain: B3 chain with A288Y, S292A
notes: packaging NTPase P4 of bacteriophage ɸ12 (gene 4) with S292A; made from plasmid pPG27, plasmid pDK31; Crystallised with 5 mM AMPcPP; also called ɸ12 S292A; S292A mutant; source: E. coli BL21(DE3) or B834(DE3), purified (Heparin, Q-sepharose, Superdex 200)
For B7, the “stoichiometry N” value in data set [6] turned out to be 6.

As usually defined, the stoichiometry N is the number of molecules, sites or subunits per partner or assembly.
